Assay in all cases: filter binding
In data set [1] the test system is Gadd45a K45A (Xenopus tropicalis). The following applies: loss of discrimination between vector and total RNA in competition; 10 mM Tris-HCl pH 7.4, 10 mM KCl, 1 mM MgCl2; 2.5 or 1.3 uM protein, ~2 ng 32P-MCS RNA, 20 min; temperature not given; nitrocellulose filter.
The subject of data set [2] is Gadd45a R34G (Xenopus tropicalis). The following applies: 10 mM Tris-HCl pH 7.4, 10 mM KCl, 1 mM MgCl2; 2.5 or 1.3 uM protein, ~2 ng 32P-MCS RNA, 20 min; temperature not given; nitrocellulose filter.
For data set [3], the system named is Gadd45a G39A (Xenopus tropicalis). The following applies: loss of discrimination between vector and total RNA in competition; 10 mM Tris-HCl pH 7.4, 10 mM KCl, 1 mM MgCl2; 2.5 or 1.3 uM protein, ~2 ng 32P-MCS RNA, 20 min; temperature not given; nitrocellulose filter.
Data set [4] deals with Gadd45a V49R (Xenopus tropicalis). The following applies: 10 mM Tris-HCl pH 7.4, 10 mM KCl, 1 mM MgCl2; 2.5 or 1.3 uM protein, ~2 ng 32P-MCS RNA, 20 min; temperature not given; nitrocellulose filter.

As to “MCS RNA (multiple cloning site transcript)”, the binding signal (fold of wild type binding (comparable)) in data set [1], in data set [2] and in data set [3] was 1 in each case. This substance showed a binding signal (fold of wild type binding) in data set [4] of 3.
